The supplement of paper PMC9170038

Tested on: MS2 coat protein
Test: apparent KD of MS2 coat protein; designed switch direction (-1 OFF switch, 1 ON switch): -1; higher = weaker reporter binding
How it was run: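 The apparent KD reported per design is the median over clusters of curve fits to normalised cluster fluorescence. The RNA switches were transcribed on Illumina chips by stalled E. coli RNA polymerase. SNAP-549-labelled MS2 coat protein was titrated from 0.7 or 1.5 nM, doubling up to 3 µM, in Tris-HCl pH 7.5 buffer containing KCl, MgCl2, BSA, DTT, tRNA and Tween-20, with no input, 200 uM small-molecule ligand, or an oligonucleotide input.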

[1] = Eterna round: R95, input ligand: FMN 200 uM
[2] = Eterna round: R95, input ligand: microRNA oligo, concentration not stated
[3] = Eterna round: R95, input ligand: none
[4] = input ligand: microRNA oligo, concentration not stated

Row | Sequence | apparent KD of MS2 coat protein (input ligand: FMN 200 uM) | apparent KD of MS2 coat protein (input ligand: none) | apparent KD of MS2 coat protein [1] | apparent KD of MS2 coat protein [2] | apparent KD of MS2 coat protein [3] | apparent KD of MS2 coat protein [4]
1 | GGAUCGAAAGUGAGGAUAUACCUAUGGAAACAUAGGUAGAAGGCACAUGAGGAUCACCCAUGUUCCUACGGUCC [Mat - Exclusion 4 - Eli Mod - D10] (Eterna round: R97, puzzle: Brourd's mod of Exclusion 4) | 113 nM | 20 nM |  |  |  | 
2 | CCAACAAGCUUUUUGCUCGACAUGAGGAUCACCCAUGUAAAAUGGGUAAAUUUAAAUUUAAAUUUAUUUAAAUUUGG [-16.3, -42.5 kcal, A 35%] (Eterna round: R97, puzzle: Sensor, turn-off variant 1) | 505 nM | 728 nM |  |  |  | 
3 | AAAAUACAUGAGGAUCACCCAUGUGAGGAUAUGAGAGUCAUUUAUAUAUAUUAGAUUCUCAGAAGGCACAUAAA [JR_Ex1_Sub068] (Eterna round: R97, puzzle: Exclusion 1) | 211 nM | 53.7 nM |  |  |  | 
4 | UCCGAAGCAGGAUAUACAUGAGGAUCACCCAUGUGCUUGCAUGGCGUGGGAAGUCAUAGUAGAAGGGCUACGCC [jl-ex3-4.71 ViennaUCT mod] (Eterna round: R97, puzzle: Exclusion 3) | 53.1 nM | 33.7 nM |  |  |  | 
5 | UAUAUGUCAGGAUAUCGAUUAGAACAGAAUUUAACAAUAGUCGAGAAGGGACAUGAGGAUCACCCAUGUUCAAC [JR_Ex4_Sub021] (Eterna round: R97, puzzle: Exclusion 4) | 41.7 nM | 20.5 nM |  |  |  | 
6 | UCAUGGUAGCAGGAUAUGCUAGAAAUUUUUUAUGCAGAAGGGCUUACAUGAGGAUCACCCAUGUGUUAGGUCUA [JR_E6_Sub070] (puzzle: Exclusion 6) |  |  | 47.2 nM | 50.8 nM | 48.5 nM | 
7 | CGUCGAAAUGUAGGAUAUCUGCACGUGUAGUGCAGAGAAGGACAUGAGGAUCACCCAUGUAGAUCACGACGAAUUAAUUUAAUU [ENG1/5-C3] (Eterna round: R96, puzzle: Exclusion NG 1) | 468 nM | 56.9 nM |  |  |  | 50.4 nM
8 | UUAAUUAAUUGACUGCAAGAUCAACAUGAGGAUCACCCAUGUGAGGAUAUCAGCUCGAUUAGAGCUGAGAAGGCACAAGCAGUC [ExNG3/16-A1] (Eterna round: R96, puzzle: Exclusion NG 3) | 80.4 nM | 17.5 nM |  |  |  | 15 nM
9 | CGUAUGUCAGGAUAUCGUGCAUACAACGAAAGUUCUAUGUGCGAGAAGGGACAUGAGGAUCACCCAUGUUUACG [Omei Ex4 A12] (Eterna round: R97, puzzle: Exclusion 4) | 89 nM | 26.1 nM |  |  |  | 
10 | AGGUAGUCAGGAUAUUAGGAGUAGCGGGAUAACGCUACGAGUGAGAAGGGACAUGAGGAUCACCCAUGUUUAUU [JR_Ex4_Sub069] (Eterna round: R97, puzzle: Exclusion 4) | 70.3 nM | 26.8 nM |  |  |  | 
11 | AAUAUACAUGUAGGAUAUCUGCACGAUUAGUGCAGAGAAGGACAUGAGGAUCACCCAUGUAAUUAAGAUCAAUUAUUAAAUAUU [ENG1/3-B1] (Eterna round: R96, puzzle: Exclusion NG 1) | 327 nM | 46.6 nM |  |  |  | 46.9 nM
12 | UCUCUGUGAGGAUAUUGAACGACGCCGCUAACGGGCUUGCACAAGAAGGCACAUGAGGAUCACCCAUGUCCCGA [EX4 B.28] (Eterna round: R97, puzzle: Exclusion 4) | 29.1 nM | 20.7 nM |  |  |  | 
13 | GAGCAGGAAGGAUAUACAUGAGGAUCACCCAUGUACCAUCAAGGCUUUGAUUUUCACGGUAGAAGGUCCCAAUA [Sotece] (puzzle: Exclusion 3) |  |  |  | 34.8 nM |  | 
14 | GGAUCGUAUGUCAGGAUAUACCACUGGAUACAGUGGUAGAAGGGACAUGAGGAUCACCCAUGUUCUAUCGAUCC [Fiskers BMX 4 - 53] (puzzle: Brourd's mod of Exclusion 4) |  |  |  | 12.5 nM |  | 
15 | AUGGGUCCUCACGGAGCUACAUGAGGAUCACCCAUGUGGAUUGAGGAUAUCGACUGCCGACGGCUCGAGAAGGCAGUUUACUGU [Ex NG3 #95] (Eterna round: R96, puzzle: Exclusion NG 3) | 18.6 nM | 20.2 nM |  |  |  | 14.3 nM
16 | ACAUGAGGAUCACCCAUGUCAGGUUGGUCCUCUCCGGCUGUUGAGGAUAUAGUCCGGUAUCCGCGCUAGAAGGUGAGGGCUGGC [Aenatbe mod 15] (Eterna round: R96, puzzle: Exclusion NG 3) | 21.4 nM | 21.3 nM |  |  |  | 17.2 nM
17 | UAUAUAUAGUAAGGAUAUGUAUAUAUUUAAUAAACAGAAGGUACUGACAUGAGGAUCACCCAUGUUUUAGUGUGGGCAUGUAGA [JMF's solution 63] (Eterna round: R96, puzzle: Exclusion NG 1) |  |  |  |  |  | 59.9 nM
18 | CUGUGCACGCUGCGGUCCUACAUGAGGAUCACCCAUGUGGUCUGGUGGCGUGGGUCGCCGGACUUGGCUCGUCUUGG [salish99_S_TOV1_R5_025] (Eterna round: R97, puzzle: Sensor, turn-off variant 1) | 15.3 nM | 15.9 nM |  |  |  | 
19 | CUUUUGUGAGGAUAUCAGUAGUAAAAAAAUAUAAUUACUACUGAGAAGGCACAUGAGGAUCACCCAUGUUCCUC [salish99_ex4_r3_023] (puzzle: Exclusion 4) |  |  |  | 40.1 nM |  | 
20 | ACAUGAGGAUCACCCAUGUAAACAUAAUGGCUCAUGUAGAGUCAGGAUAUGCGUGGCGAACACGCGCAGAAGGGACAAGACUGG [Deportation 24 - Jieux - Exclusion NG 3] (Eterna round: R96, puzzle: Exclusion NG 3) | 32.4 nM | 31 nM |  |  |  | 21 nM
21 | ACAUGUCAUCGAGGAUAUUGCACACAUGAGGAUCACCCAUGUAUUCGGUUGCUCUCGCGUGAGUUCGAGAAGGCGAUGUACAUU [Ex NG2 #84] (Eterna round: R96, puzzle: Exclusion NG 2) | 276 nM | 48.9 nM |  |  |  | 36.6 nM
22 | UGGUAACAUGAGGAUCACCCAUGUCAGGAUAUCAGGAAGAAGAGAGGAGAGUAGAAGAUGAGAAGGGACUAUAU [Excluse me! 10 - Jieux - Exclusion 1] (puzzle: Exclusion 1) |  |  | 20.2 nM | 24.5 nM | 27.5 nM | 
23 | GGCCUUCCGCGAGCUUUUUACAUGAGGAUCACCCAUGUGGUUUUUAGUCUUAUCCCGGGCCCGGUGUCGGGCCCGGG [-32.9, -53.8, A 12%] (Eterna round: R97, puzzle: Sensor, turn-off variant 1) | 29.8 nM | 30.2 nM |  |  |  | 
